Laboratory results taken from patent US20240342322A1 (NETRIS PHARMA, published 2024).

Molecular target: T1, recombinant human netrin-1 (R&D) (human, UniProt O95631 25-604, limits assumed)
T1 construct: Bought recombinant protein; also called h-netrin-1; human recombinant netrin-1
Assay: bio-layer interferometry

B1: recombinant human Vitronectin (other, UniProt P04004 20-478, looked up)
chain: DQESCKGRCTEGFNVDKKCQCDELCSYYQSCCTDYTAECKPQVTRGDVFTMPEDEYTVYDDGEEKNNATVHEQVGGPSLTSDLQAQSKGNPEQTPVLKPEEEAPAPEVGASKPEGIDSRPETLHPGRPQPPAEEELCSGKPFDAFTDLKNGSLFAFRGQYCYELDEKAVRPGYPKLIRDVWGIEGPIDAAFTRINCQGKTYLFKGSQYWRFEDGVLDPDYPRNISDGFDGIPDNVDAALALPAHSYSGRERVYFFKGKQYWEYQFQHQPSQEECEGSSLSAVFEHFAMMQRDSWEDIFELLFWGRTSAGTRQPQFISRDWHGVPGQVDAAMAGRIYISGMAPRPSLAKKQRFRHRNRKGYRSQRGHSRGRNQNSRRPSRATWLSLFSSEESNLGANNYDDYRMDWLVPATCEPIQSVFFFSGDKYYRVNLRTRRVDTVDPPYPRSIAQYWLGCPAPGHL
notes: also called h-Vitronectin
binding result: binds
